From patent US20150094219A1

What was measured:
[1] = target: thrombin protease (Amersham Biosciences); test: cell-based or functional assay
[2] = target: GFP^2-RG-RLuc fusion protein (UniProt P27652)
GFP^2-RG-RLuc2 (GTR2) = GFP^2-RG-RLuc2 (GTR2) (UniProt P27652)
GFP^2-RG-RLuc2 (GTR2), sequence (P27652 other isoform, or with tags, fused parts or gaps): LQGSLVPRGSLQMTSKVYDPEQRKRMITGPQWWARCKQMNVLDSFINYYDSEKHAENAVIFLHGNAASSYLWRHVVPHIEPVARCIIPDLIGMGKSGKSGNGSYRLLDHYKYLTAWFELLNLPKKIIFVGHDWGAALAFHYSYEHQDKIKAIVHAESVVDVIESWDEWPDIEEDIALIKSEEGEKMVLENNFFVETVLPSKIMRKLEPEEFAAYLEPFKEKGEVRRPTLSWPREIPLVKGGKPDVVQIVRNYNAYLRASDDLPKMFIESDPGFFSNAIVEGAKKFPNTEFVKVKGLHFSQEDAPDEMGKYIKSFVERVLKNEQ

GFP^2-RG-RLuc fusion protein, sequence (P27652 other isoform, or with tags, fused parts or gaps): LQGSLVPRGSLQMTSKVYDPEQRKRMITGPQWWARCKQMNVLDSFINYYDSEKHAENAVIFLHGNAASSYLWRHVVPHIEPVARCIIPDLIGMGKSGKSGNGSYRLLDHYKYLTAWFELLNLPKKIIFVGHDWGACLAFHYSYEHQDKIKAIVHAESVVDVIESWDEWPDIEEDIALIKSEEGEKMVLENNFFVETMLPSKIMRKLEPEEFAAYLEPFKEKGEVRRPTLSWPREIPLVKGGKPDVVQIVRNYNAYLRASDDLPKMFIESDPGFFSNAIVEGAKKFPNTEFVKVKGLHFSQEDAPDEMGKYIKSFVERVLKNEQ
Recombinant hirudin from yeast (Sigma), sequence (P01050 whole entry): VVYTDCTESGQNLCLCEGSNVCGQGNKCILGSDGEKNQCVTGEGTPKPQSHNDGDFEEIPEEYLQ

| Substance | BRET^H ratio of the sensor with thrombin after pre-addition of hirudin [1] | BRET^H ratio following thrombin cleavage [2] | SDS-PAGE of the sensor after thrombin treatment [2] | bioluminescence spectrum of the sensor after thrombin [2] | change of BRET^2 ratio (GFP/RLuc) at 270 pM thrombin [2] [fold] | decrease in BRET^2 signal, on-chip mixing of 1 µM sensor with 540 nM thrombin and substrate [2] | decrease of the BRET^H ratio following thrombin cleavage [2] | detection limit for thrombin, microchip BRET^H [2] [pM] | detection limit for thrombin, microplate BRET^H [2] [pM] | hybrid BRET ratio following thrombin cleavage [2] | lowest thrombin concentration observable in real time (120 seconds), side-by-side network [2] [nM] | lowest thrombin concentration tested and detected, pancake stack network [2] | thrombin concentration detected easily, pancake stack network (478 second residence time) [2] | upper end of the linear change of BRET^H ratio with thrombin concentration, microfluidic [2] | upper end of the linear change of BRET^H ratio with thrombin concentration, microplate [2] | change of BRET^2 ratio of GTR2 after 2 units of thrombin in diluted milk and orange juice (GFP^2-RG-RLuc2 (GTR2)) |
| --- | --- | --- | --- | --- | --- | --- | --- | --- | --- | --- | --- | --- | --- | --- | --- | --- |
| Recombinant hirudin from yeast (Sigma) (from UniProt P01050 1-65) | 1.08 |  |  |  |  |  |  |  |  |  |  |  |  |  |  |  |
| thrombin protease (Amersham Biosciences) |  | from 1.11±0.06 to 0.75±0.04 | the fusion protein was cleaved into two components with molecular weights of 32.4 KDa and 36.4 KDa | Upon thrombin cleavage the green component of the spectrum was reduced | 10 | Approximately 75% decrease in BRET^2 signal | by approximately 32% | 27 | 310 | 0.79 | 540 | Thrombin was detected down to 14 nM, the lowest concentration tested | 27 nM thrombin could be detected easily | up to 0.24 nM for microfluidic measurements | 2.7 nM for microplate measurements | Thrombin activity was detected in 1/10 dilutions of milk and orange juice |
